Here are results for 17 molecules from patent US20220112276A1 (Janssen / Centocor, published 2022).

Positions count from the first letter of the chain named.

Sequences and labels used below:
B1: 03G05R3 VHH Mono-Fc (Fc fusion)
chain: EVQLVESGGGLVQAGDSLRLSCAASGRALSFNTYAMAWFRQAPGKEREFVASITYNGGSTYYADSVKGRFTVTRDNGKNTVTLRMNSLKPDDTAVYYCASAQYWRSGTSFPANYWGQGTQVTVSSSPAPELLGGPSVFLFPPKPKDTLMISRTPEVTCVVVDVSHEDPEVKFNWYVDGVEVHNAKTKPREEQYNSTYRVVSVLTVLHQDWLNGKEYKCKVSNKALPAPIEKTISKAKGQPREPQVYTKPPSREEMTKNQVSLSCLVKGFYPSDIAVEWESNGQPENNYKTTVPVLDSDGSFRLASYLTVDKSRWQQGNVFSCSVMHEALHNHYTQKSLSLSPGK
B2: 01C04R3 VHH Mono-Fc (Fc fusion)
chain: B1 chain with E1Q, N79D, Q120L
B3: 01D06R2 VHH Mono-Fc (Fc fusion)
chain: QVQLVESGGGLVQAGDSLRLSCAASGRTLSFDTYAMAWFRQAPGKEREFVASIDWNGVNTYYADSVKGRFTVTRDNTKNTVTLRMNSLKTDDTAVYYCAAAQYYRSGTSFPANSWGQGTQVTVSSSPAPELLGGPSVFLFPPKPKDTLMISRTPEVTCVVVDVSHEDPEVKFNWYVDGVEVHNAKTKPREEQYNSTYRVVSVLTVLHQDWLNGKEYKCKVSNKALPAPIEKTISKAKGQPREPQVYTKPPSREEMTKNQVSLSCLVKGFYPSDIAVEWESNGQPENNYKTTVPVLDSDGSFRLASYLTVDKSRWQQGNVFSCSVMHEALHNHYTQKSLSLSPGK
B4: 01F04R3 VHH Mono-Fc (Fc fusion)
chain: B1 chain with E1Q, K67R, N76S, Q120L
B5: 02G03R3 VHH Mono-Fc (Fc fusion)
chain: EVQLVESGGGLVQAGGSLRLSCAASGMPDNIFSIKTMGWYRQAPGKERELVAAITSGGSTNYGDSVKDRFTISRDRIENTVNLEMNNLKPEDTAVYTCHADLTYIRFQDMEYWGKGTQVTVSSSPAPELLGGPSVFLFPPKPKDTLMISRTPEVTCVVVDVSHEDPEVKFNWYVDGVEVHNAKTKPREEQYNSTYRVVSVLTVLHQDWLNGKEYKCKVSNKALPAPIEKTISKAKGQPREPQVYTKPPSREEMTKNQVSLSCLVKGFYPSDIAVEWESNGQPENNYKTTVPVLDSDGSFRLASYLTVDKSRWQQGNVFSCSVMHEALHNHYTQKSLSLSPGK
B6: 01C09R3LS VHH Mono-Fc (Fc fusion)
chain: EVQLVESGGGLVQAGGSLRLSCAASGRTINTYVMGWFRQAPGKEREFVARIDWSGSSTDYADSVKGRFTISRDNAKNTVYLQMNSLKPEDTAVYYCAGSAYYSGYVTHRDFGSWGQGTQVTVSSSPAPELLGGPSVFLFPPKPKDTLMISRTPEVTCVVVDVSHEDPEVKFNWYVDGVEVHNAKTKPREEQYNSTYRVVSVLTVLHQDWLNGKEYKCKVSNKALPAPIEKTISKAKGQPREPQVYTKPPSREEMTKNQVSLSCLVKGFYPSDIAVEWESNGQPENNYKTTVPVLDSDGSFRLASYLTVDKSRWQQGNVFSCSVMHEALHNHYTQKSLSLSPGK
B7: 01C05R3LS VHH Mono-Fc (Fc fusion)
chain: B6 chain with Q119L
B8: 01E09R3LS VHH Mono-Fc (Fc fusion)
chain: B6 chain with I70T, S85G, Q119L
B9: 01G10R3LS VHH Mono-Fc (Fc fusion)
chain: B6 chain with M34T
B10: 01E10R3 VHH Mono-Fc (Fc fusion)
chain: QVQLVESGGGLVQSGGSLRLSCAASGRTFSDYAMGWFRQAPGKERELVAAITWNGGSTYYADSVKGRFTISRDNAKNTVDLQMNSLKPEDTAVYYCAADPLNSDSAGTYDYWGQGTLVTVSSSPAPELLGGPSVFLFPPKPKDTLMISRTPEVTCVVVDVSHEDPEVKFNWYVDGVEVHNAKTKPREEQYNSTYRVVSVLTVLHQDWLNGKEYKCKVSNKALPAPIEKTISKAKGQPREPQVYTKPPSREEMTKNQVSLSCLVKGFYPSDIAVEWESNGQPENNYKTTVPVLDSDGSFRLASYLTVDKSRWQQGNVFSCSVMHEALHNHYTQKSLSLSPGK
B11: 01B05R2 VHH Mono-Fc (Fc fusion)
chain: EVQLVESGGGLVQAGGSLRLSCAASGRSLSFDTYAMGWFRQAPGKEREFVASIDWNGGSTYYADSVKGRFTISRDNARNTVNLRMNSLKPDDTAVYYCAAARYYTSGTYFPANYWGQGTQVTVSSSPAPELLGGPSVFLFPPKPKDTLMISRTPEVTCVVVDVSHEDPEVKFNWYVDGVEVHNAKTKPREEQYNSTYRVVSVLTVLHQDWLNGKEYKCKVSNKALPAPIEKTISKAKGQPREPQVYTKPPSREEMTKNQVSLSCLVKGFYPSDIAVEWESNGQPENNYKTTVPVLDSDGSFRLASYLTVDKSRWQQGNVFSCSVMHEALHNHYTQKSLSLSPGK
B12: 01H05R3 VHH Mono-Fc (Fc fusion)
chain: B11 chain with E1Q, S30G, A35G, G37A, V66M, R78K, G107S
B13: 03H05R3 VHH Mono-Fc (Fc fusion)
chain: QVQLVESGGGLVQAGGSLSLSCAASGRSLSFDTYAMSWFRQAPGKEREFVASIDWNGGSTSYADSMKGRFTISRDNAKNTVNLRIRSLKPDDTAVYFCASARYYIGGTYFPANYWGQGTQVTVSSSPAPELLGGPSVFLFPPKPKDTLMISRTPEVTCVVVDVSHEDPEVKFNWYVDGVEVHNAKTKPREEQYNSTYRVVSVLTVLHQDWLNGKEYKCKVSNKALPAPIEKTISKAKGQPREPQVYTKPPSREEMTKNQVSLSCLVKGFYPSDIAVEWESNGQPENNYKTTVPVLDSDGSFRLASYLTVDKSRWQQGNVFSCSVMHEALHNHYTQKSLSLSPGK
B14: 03C10R3 VHH Mono-Fc (Fc fusion)
chain: B11 chain with E1Q, A14R, S30G, S59N, R78K, V95A, Q117R, Q120L
B15: 01D04R3LS VHH Mono-Fc (Fc fusion)
chain: EVQLVESGGGLVQAGGSLRLSCAASGRTFRSYAMGWFRQAPGKEREFVADISWRGGRLYYADSVKGRFTISRDNAKNTVYLQMNSLKPEDTAVYYCAATGDQPAFTTAQGMGAMLEYDYWGQGTLVTVSSSPAPELLGGPSVFLFPPKPKDTLMISRTPEVTCVVVDVSHEDPEVKFNWYVDGVEVHNAKTKPREEQYNSTYRVVSVLTVLHQDWLNGKEYKCKVSNKALPAPIEKTISKAKGQPREPQVYTKPPSREEMTKNQVSLSCLVKGFYPSDIAVEWESNGQPENNYKTTVPVLDSDGSFRLASYLTVDKSRWQQGNVFSCSVMHEALHNHYTQKSLSLSPGK
B16: 01B04R2 VHH Mono-Fc (Fc fusion)
chain: EVQLVESGGGLVQAGGSLRLSCAASGRTFTSYTMGWFRQAPGKEREFVAAIKWNGGSTYYADSVKGRFTISRDNAKNTVYLQMNSLKPEDTAVYYCAADGDPYFSPTDGIVWHAPHQSEYDYWGQGTLVTVSSSPAPELLGGPSVFLFPPKPKDTLMISRTPEVTCVVVDVSHEDPEVKFNWYVDGVEVHNAKTKPREEQYNSTYRVVSVLTVLHQDWLNGKEYKCKVSNKALPAPIEKTISKAKGQPREPQVYTKPPSREEMTKNQVSLSCLVKGFYPSDIAVEWESNGQPENNYKTTVPVLDSDGSFRLASYLTVDKSRWQQGNVFSCSVMHEALHNHYTQKSLSLSPGK
B17: 02C10R3 VHH Mono-Fc (Fc fusion)
chain: EVQLVESGGGLVQPGGSLRLSCAASGFTFSSFTMTWFRQAPGKGLGWVSRISSDGTGTNYADSVKGRFTISRDNAKNTLYLRMNSLKPEDTAVYYCAIADDSSTRGQGTLVTVSSSPAPELLGGPSVFLFPPKPKDTLMISRTPEVTCVVVDVSHEDPEVKFNWYVDGVEVHNAKTKPREEQYNSTYRVVSVLTVLHQDWLNGKEYKCKVSNKALPAPIEKTISKAKGQPREPQVYTKPPSREEMTKNQVSLSCLVKGFYPSDIAVEWESNGQPENNYKTTVPVLDSDGSFRLASYLTVDKSRWQQGNVFSCSVMHEALHNHYTQKSLSLSPGK

T2 sequence (P01833 other isoform, or with tags, fused parts or gaps): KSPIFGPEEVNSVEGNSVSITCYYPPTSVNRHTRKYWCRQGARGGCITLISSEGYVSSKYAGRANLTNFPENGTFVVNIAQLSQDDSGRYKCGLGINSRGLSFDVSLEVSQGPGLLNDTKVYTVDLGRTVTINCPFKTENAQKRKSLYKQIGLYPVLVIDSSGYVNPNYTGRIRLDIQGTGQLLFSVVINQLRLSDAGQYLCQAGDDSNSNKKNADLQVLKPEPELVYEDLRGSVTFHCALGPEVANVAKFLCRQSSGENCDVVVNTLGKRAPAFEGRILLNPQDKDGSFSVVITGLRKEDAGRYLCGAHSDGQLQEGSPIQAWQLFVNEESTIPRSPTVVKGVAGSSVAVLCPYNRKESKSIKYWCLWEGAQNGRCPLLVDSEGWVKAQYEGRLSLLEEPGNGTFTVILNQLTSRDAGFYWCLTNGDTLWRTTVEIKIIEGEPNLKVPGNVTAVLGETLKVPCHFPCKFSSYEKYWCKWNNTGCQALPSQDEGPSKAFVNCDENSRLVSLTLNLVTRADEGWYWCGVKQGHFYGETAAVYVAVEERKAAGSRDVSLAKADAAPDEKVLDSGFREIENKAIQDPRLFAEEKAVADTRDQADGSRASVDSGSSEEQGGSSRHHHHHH

The target of one experiment is T1, cynomolgus monkey pIgR extracellular domain (cynomolgus monkey, UniProt A0A2K5WMU9 19-638).
T1 construct: extracellular domain
T1 sequence (A0A2K5WMU9 entry or part of it): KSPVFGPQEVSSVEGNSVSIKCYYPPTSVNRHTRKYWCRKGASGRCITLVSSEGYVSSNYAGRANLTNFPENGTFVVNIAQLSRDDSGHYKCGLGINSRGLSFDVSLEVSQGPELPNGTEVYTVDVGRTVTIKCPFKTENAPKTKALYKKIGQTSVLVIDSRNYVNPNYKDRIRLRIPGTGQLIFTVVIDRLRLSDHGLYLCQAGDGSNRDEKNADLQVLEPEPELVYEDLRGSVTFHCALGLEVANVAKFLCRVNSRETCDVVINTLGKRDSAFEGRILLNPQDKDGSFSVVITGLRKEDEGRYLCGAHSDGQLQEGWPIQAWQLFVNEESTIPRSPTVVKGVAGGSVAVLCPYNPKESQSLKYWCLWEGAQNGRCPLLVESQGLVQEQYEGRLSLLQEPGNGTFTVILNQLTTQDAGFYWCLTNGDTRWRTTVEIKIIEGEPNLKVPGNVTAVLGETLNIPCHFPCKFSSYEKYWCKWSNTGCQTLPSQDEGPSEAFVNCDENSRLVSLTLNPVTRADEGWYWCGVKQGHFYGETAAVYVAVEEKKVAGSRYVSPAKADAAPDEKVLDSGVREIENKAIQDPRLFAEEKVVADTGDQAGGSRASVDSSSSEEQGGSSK
The experiment in a line: SPR, VHH captured by anti-Fc, ECD analyte. As for the experimental part: (§1) In an assay, two flow cells of the SPR were used, in which the flow cell 1 ran the buffer reference, and the flow cell 2 ran the analyte. […] The HBSP (GE) buffer was followed at a flow rate of 30 μL/min. Then, the VHHs were captured on the anti-human Fc protein surface at 0.5 ug/ml (˜200-300 RU) on the flow cell 2. The running buffer was changed to HBSP with 100 ug/ml BSA after the capture. Next, the pIgR extracellular domains were used as analyte and loaded in a series of concentrations, starting at 30 nM with further 3-fold dilution series.
(§2) The extracellular domains were prepared as follows: cynomolgus monkey and rat extracellular domains were produced and characterized in house; mouse and human pIgR extracellular domains were purchased from R&D Systems (Cat #2800-PG-050 & 2717-PG-050 respectively). The pIgR extracellular domains were injected from low to high concentration using a single-cycle kinetics method. The off-rate was monitored at 30 minutes after the last or highest concentration injection. The reference run was completed under the same conditions except that the pIgR injection was replaced by buffer injection.
(§3) The raw data were processed by subtracting two sets of reference data from the response data: (1) reference flow cell 1 subtracted from sample flow cell 2; and (2) buffer blank run subtracted from experimental run. The processed data at all concentrations for each VHH were globally fit to a 1:1 simple Langmuir binding model to extract estimates of the kinetic constants (kₒₙ, koff) and affinity constants (KD).
For the molecule B1, the affinity, expressed as Kd, was 30.1 nM.
The same measure, in the same setting: under B2 stands 46.3 nM; under B3, 14.4 nM; under B4, 30.9 nM.
Regarding B5, the Kd worked out at 3.99 nM.
Still for that read-out and setting: then B6, with 93.7 nM; and B7, with 84.9 nM.
On the same count and under the same terms, under B8 stands 135 nM; under B9, 287 nM; under B10, 23.2 nM.
In turn, B11 came in with a Kd of 177 nM.
As for B12, the Kd worked out at 406 nM.
Turning to B13, the Kd is 108 nM.
The molecule B14 yielded a Kd of 17.5 nM.

The next experiment addresses T2, human pIgR extracellular domain (ECD) (human, UniProt P01833 19-638).
T2 construct: Bought from R&D Systems (Cat 2717-PG-050); also called hpIgR ECD
The experiment in a line: SPR, VHH captured by anti-Fc, ECD analyte. On the procedure: as §1, §2, §3
Molecule B15 registered a Kd of 1.16 nM.
Still for that read-out and setting: then B1, with 3.7 nM.
Molecule B2 gave a Kd of 3.09 nM.
Take B3: the Kd was determined as 1.44 nM.
In turn, B4 showed a Kd of 5.92 nM.
For B5, binding was characterised by a dissociation constant (Kd) of 1.48 nM.
For the molecule B16, the Kd was determined as 16.8 nM.
B6 yielded a Kd of 6.92 nM.
Same read-out and setting: then B7, with 5.77 nM.
B8 showed a Kd of 8.39 nM.
For the molecule B9, the affinity, expressed as Kd, was 18.5 nM.
The same measure, in the same setting: under B17 stands 2.09 nM; under B10, 1.39 nM.
On the same count and under the same terms, under B11 stands 3.55 nM; under B12, 7.54 nM; under B13, 2.93 nM.
B14 registered a Kd of 1.67 nM.
